B1: 18C6.D12 (antibody, V domains shown)
VH: QVTLKESGPGILQPSQTLSLTCSFSGFSLSTVGMGVGWSRQPSGKGLEWLAHIWWDDEDKYYNPALKSRLTISKDTSKNQVFLKIANVDTADTATYYCTRIGTAQATDALDYWGQGTSVTVSS
VL: DIVMTQAAPSVPVTPGESVSISCRSSKSLLHSNGNTYLYWFLQRPGQSPQRLIYYMSNLASGVPDRFSGRGSGTDFTLRISRVEAEDVGVYYCMQSLEYPLTFGGGTKLEIK
notes: Mouse monoclonal from a hybridoma; also called MUC16 Glycosylation Antibody 18C6
B2: 19C11.H6 (antibody, V domains shown)
VH: QVNLKESGPGKLQPSQTLSLTCSFSGFSLSTLGMGVGWIRQSSGKGLEWLAHIWWDDDKYYNPALKSRLTISRATSKNQVFLKIVNVGTADTATYYCARIGTAQATDALDYWGQGTSVTVSS
VL: B1 VL with V11I, R79K, E86G, S96G, Y99H
notes: Mouse monoclonal from a hybridoma; Used as 89Zr-DFO-labelled antibody in the internalization assay; also called MUC16 Glycosylation Antibody 19C11
B3: 7B12.B3 (antibody, V domains shown)
VH: B1 VH with T93S
VL: B1 VL with P12S, L30R, H31K, E110K
notes: Mouse monoclonal from a hybridoma; also called MUC16 Glycosylation Antibody 7B12

Data on three molecules can be found in patent US20180112008A1 (Memorial Sloan Kettering, published 2018).

The term Kd denotes the free concentration of one partner at which half of the binding sites on the other are occupied at equilibrium, for simple one-to-one binding. For orientation: koff means the rate constant with which the complex falls apart. A low value points to a long-lived complex.

Substitutions are numbered along the chain they refer to. Ends that are not written are not given here. * marks the point of attachment. GlcNAc2 = N-linked chitobiose, CC(=O)N[C@@H]1[C@@H](O)[C@H](O[C@@H]2O[C@H](CO)[C@@H](O)[C@H](O)[C@H]2NC(C)=O)[C@@H](CO)O[C@H]1*

The target of one experiment is T1, MUC16 18mer (not fully specified).
T1 construct: also called non-glycosylated 18-mer MUC16 peptide
T1 peptide: CTRNGTQLQNFTLDRSSV
Put plainly: ELISA 12/24/13 (sups from time of freezing), dilution 400, column 18.
B1: the ELISA signal was determined as 0.45.
The molecule B2 returned an ELISA signal of 0.2.
Molecule B3 came in with an ELISA signal of 0.33.

Another experiment concerns the target T2, GlcNAc2-15-mer glycopeptide, unconjugated (human).
T2 construct: Cys plus G25-V38 of MUC16^c114; Used in ELISA without KLH; also called 15-mer(chitobiose)[C-G25-V38]; 15mer-chitobiose peptide
T2 peptide: Ac-CGTQLQN(GlcNAc2)FTLDRSSV-NH2
Put plainly: ELISA 12/24/13 (sups from time of freezing), dilution 400, column 15S. (ELISA stands for enzyme-linked immunosorbent assay.)
Consider B1, for which the ELISA signal amounted to 0.14.
The molecule B2 gave an ELISA signal of 0.1.
On the same count and under the same terms, to B3 belongs 0.25.

The target of the next experiment is T3, MUC16 nonglycosylated peptide 2 (human).
T3 construct: Peptide used to elicit the 4H11 antibody; also called nonglycosylated MUC16 peptide 2
T3 peptide: CTLDRSSVLVDGYSPNRNE
Briefly: sandwich ELISA on 'MUC16 Nonglycosylated Peptide2'; Blank 0.029.
With B1, the ELISA signal worked out at 0.02.
Molecule B2 showed an ELISA signal of 0.03.
On the same count and under the same terms, the figure for B3 is 0.02.

Another experiment addresses T4, (GlcNAc2)2-18-mer glycopeptide, unconjugated (human).
T4 construct: Used in ELISA without KLH; also called 18-mer(chitobiose)2[C-T22-V38]; 18mer-chitobiose peptide
T4 peptide: Ac-CTRN(GlcNAc2)GTQLQN(GlcNAc2)FTLDRSSV-NH2
Put plainly: ELISA during fusion screen, dilution 400, column 18S.
B1: the ELISA signal was 0.64.
In turn, B2 showed an ELISA signal of 0.47.
Molecule B3 returned an ELISA signal of 0.92.

A further experiment deals with T5, MUC16^c114 on SKOV3 cells with MGAT5 knock-down (human, N-glycans without MGAT5-dependent tetra-antennary branching ; chain 1 pos 1, 24 and 30: N-glycosylated Asn, written N; the glycans lack MGAT5-dependent tetra-antennary branching (shRNA knock-down)).
T5 construct: Same polypeptide as MUC16^c114, other glycoform (shRNA against MGAT5); also called SKOV3-shMGAT5-c114; MUC16^c114-shMGAT5; not shown: hrGFP of the phrGFP II-C vector, fused at the cytoplasmic carboxy-terminus
T5 chain: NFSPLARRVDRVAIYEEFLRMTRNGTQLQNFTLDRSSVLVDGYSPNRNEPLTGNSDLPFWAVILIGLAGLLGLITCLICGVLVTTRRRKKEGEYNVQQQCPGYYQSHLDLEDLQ
Briefly: FACS, SKOV3-shMGAT5-c114. A general note: Flow cytometry measures light scatter and fluorescence of single cells or particles in a stream.
Take B1: the “geometric mean phycoerythrin (PE) fluorescence” value (“geometric mean phycoerythrin” for short) was determined as 855.
For the molecule B2, the “geometric mean phycoerythrin” value was found to be 525.
Regarding B3, the “geometric mean phycoerythrin” value stood at 289.

A further experiment addresses T6, MUC16^c114 (human, capable of N-glycosylation at Asn1, Asn24 and Asn30 ; chain 1 pos 1, 24, 30: Asn capable of N-glycosylation on the transfected cells, written N).
T6 construct: The forward primer adds Met-Val before Asn1; also called MUC16^c114-GFP; SKOV3 MUC16^c114; not shown: hrGFP of the phrGFP II-C vector fused at the cytoplasmic carboxy-terminus, with its short cloning linker
T6 chain: T5 chain
Put plainly: FACS, SKOV3-c114.
Consider B1, for which the “geometric mean phycoerythrin” value worked out at 2050.
The same measure, in the same setting: to B2 belongs 617.
B3: the “geometric mean phycoerythrin” value was found to be 492.

In another experiment the target is T7, non-glycosylated 15-mer MUC16 peptide (human).
T7 construct: Same peptide as the GlcNAc2-15-mer without the glycan; also called unglycosylated 15-mer
T7 peptide: CGTQLQNFTLDRSSV
Briefly: sandwich ELISA on 'MUC16 15mer'; Blank 0.021.
Molecule B1 registered an ELISA signal of 1.06.
Consider B2, for which the ELISA signal is 1.17.
As to B3, the ELISA signal amounted to 1.21.

A further experiment has as its target T8, biotinylated chitobiose-conjugated 18-mer glycopeptide (human, also: biotinylated, site not given here).
T8 construct: Cys plus T22-V38 of MUC16^c114; The range is derived from T22-V38 and the statement that c114 is 1777-1890; also called (GlcNAc2)2-18-mer, biotinylated; 18-mer(chitobiose)2[C-T22-V38]
T8 peptide: Ac-CTRN(GlcNAc2)GTQLQN(GlcNAc2)FTLDRSSV-NH2
Put plainly: BLI (Octet QK), biotinylated glycopeptide on streptavidin sensor, antibody 10 ug/mL, 1:1 model. The procedure: Binding affinity was determined using ForeBio Octet QK. 5 μg/mL of biotinylated chitobiose-conjugated 18-mer glycopeptide was loaded onto a streptavidin biosensor. After washing off excess antigen, mouse antibodies were tested at 10 μg/mL for association and dissociation steps, respectively. Binding parameters were calculated using 1:1 binding site model, partial fit.
Background: In BLI a coated tip is dipped into the sample, and binding shifts an interference pattern.
For the molecule B1, the affinity, expressed as Kd, was 11.1 nM and the dissociation rate constant (koff) stood at 0.000678 s⁻¹.
In turn, B2 registered a Kd of 63.7 nM and a koff of 0.00242 s⁻¹.
Taken in the same sequence, the figures for B3 were 13.8 nM and 0.00104 s⁻¹.

The next experiment addresses T4, (GlcNAc2)2-18-mer glycopeptide, …. Put plainly: sandwich ELISA on 'MUC16 18mer + GlcNAc2'; Blank 0.029.
As to B1, the ELISA signal came to 1.06.
On to B2, for which the ELISA signal came out at 1.1.
Consider B3, for which the ELISA signal is 1.06.

In a further experiment the target is T9, MUC16 18mer + GlcNAc2-FUCOSE1 (also: N-linked GlcNAc2Fuc (fucosylated chitobiose), Asn site not given here).
T9 construct: also called 18-mer with fucosylated chitobiose (GlcNAc2Fuc)
T9 peptide: CTRNGTQLQNFTLDRSSV
Briefly: sandwich ELISA on 'MUC16 18mer + GlcNAc2-FUCOSE1'; Blank 0.044.
For B1, the ELISA signal stood at 1.03.
For the molecule B2, the ELISA signal is 1.01.
Take B3: the ELISA signal was 1.1.

A further experiment addresses T10, MUC16 18mer + GlcNAc2-Trimannose (also: N-linked Man3GlcNAc2, Asn site not given here).
T10 construct: also called 18-mer with Man3GlcNAc2
T10 peptide: CTRNGTQLQNFTLDRSSV
Briefly: sandwich ELISA on 'MUC16 18mer + GlcNAc2-Trimannose'; Blank 0.035.
As for B1, the ELISA signal was determined as 0.89.
For the molecule B2, the ELISA signal turned out to be 0.99.
Still for that read-out and setting: to B3 belongs 1.05.

The next experiment addresses T11, MUC16 18mer + GlcNAc1 (also: N-linked single GlcNAc, Asn (N4, N10 or both) not given here).
T11 construct: also called 18-mer with a single GlcNAc
T11 peptide: CTRNGTQLQNFTLDRSSV
Put plainly: sandwich ELISA on 'MUC16 18mer + GlcNAc1'; Blank 0.042.
As to B1, the ELISA signal is 0.95.
On the same count and under the same terms, to B2 belongs 0.96; to B3, 1.03.

A further experiment concerns the target T12, MUC16 unrelated peptide 18mer+GlcNAc2 (also: GlcNAc2 (chitobiose), site not given here).
T12 construct: Negative control glycopeptide; also called unrelated chitobiose-linked peptide
T12 peptide: GAVPRSATINVSRIATGP
Put plainly: sandwich ELISA on 'MUC16 unrelated 18mer + GlcNAc2'; Blank 0.014.
In the case of B1, the ELISA signal is 0.02.
As for B2, the ELISA signal came to 0.03.
The same measure, in the same setting: the figure for B3 is 0.03.

The target in a further experiment is T4, (GlcNAc2)2-18-mer glycopeptide, …. Put plainly: ELISA 12/24/13 (sups from time of freezing), dilution 400, column 18S.
B1 displayed an ELISA signal of 0.55.
The same measure, in the same setting: the figure for B2 is 0.36.
Molecule B3 had an ELISA signal of 0.51.

A further experiment deals with T13, MUC16 unrelated peptide 18mer.
T13 construct: Negative control peptide without glycan
T13 peptide: GAVPRSATINVSRIATGP
Put plainly: sandwich ELISA on 'MUC16 unrelated peptide 18mer'; Blank 0.013.
B1 showed an ELISA signal of 0.02.
The molecule B2 returned an ELISA signal of 0.03.
As for B3, the ELISA signal turned out to be 0.04.

A further experiment has as its target T2, GlcNAc2-15-mer glycopeptide, …. Put plainly: sandwich ELISA on 'MUC16 15mer + GlcNAc2'; Blank 0.019.
Regarding B1, the ELISA signal is 1.44.
Turning to B2, the ELISA signal is 1.51.
For B3, the ELISA signal worked out at 1.32.

For the next experiment, the target named is T1, MUC16 18mer. Briefly: sandwich ELISA on 'MUC16 18mer'; Blank 0.032.
B1 yielded an ELISA signal of 1.01.
B2 returned an ELISA signal of 0.98.
B3 showed an ELISA signal of 1.09.

In the next experiment the target is T1, MUC16 18mer. Briefly: ELISA during fusion screen, dilution 400, column 18.
B1 displayed an ELISA signal of 0.39.
The molecule B2 had an ELISA signal of 0.38.
The molecule B3 yielded an ELISA signal of 0.53.
